Test system: ribosomal protein L5 (TbL5) (Trypanosoma brucei)
Assay: EMSA
Conditions: EMSA: 10 mM Tris-HCl pH 7.4, 150 mM KCl, 0.1 mM DTT, 0.1 mM EDTA, 0.1% NP-40, 20 min room temperature; filter binding: 10 mM Tris pH 7.4, 1 mM EDTA, 100 mM …

T. brucei 5S rRNA
Kd: 12 nM
